According to ChEMBL document CHEMBL2074310, “ATP-dependent organic anion transport system in normal and TR- rat liver canalicular membranes” (Am J Physiol, 1992):

Substrate: O=C1OC(c2ccc(O)c(S(=O)(=O)O)c2)(c2ccc(O)c(S(=O)(=O)O)c2)c2c(Br)c(Br)c(Br)c(Br)c21
Experiment: TP_TRANSPORTER: uptake in bile canalicular membrane vesicles from Wistar rat
Assay type: functional, cell membranes, Bile canalicular membrane vesicle

B1: ATP-binding cassette sub-family C member 2 (Rattus norvegicus) (protein)
chain: MDKFCNSTFWDLSLLESPEADLPLCFEQTVLVWIPLGFLWLLAPWQLYSVYRSRTKRSSITKFYLAKQVFVVFLLILAAIDLSLALTEDTGQATVPPVRYTNPILYLCTWLLVLAVQHSRQWCVRKNSWFLSLFWILSVLCGVFQFQTLIRALLKDSKSNMAYSYLFFVSYGFQIVLLILTAFSGPSDSTQTPSVTASFLSSITFSWYDRTVLKGYKHPLTLEDVWDIDEGFKTRSVTSKFEAAMTKDLQKARQAFQRRLQKSQRKPEATLHGLNKKQSQSQDVLVLEEAKKKSEKTTKDYPKSWLIKSLFKTFHVVILKSFILKLIHDLLVFLNPQLLKLLIGFVKSSNSYVWFGYICAILMFAVTLIQSFCLQSYFQHCFVLGMCVRTTVMSSIYKKALTLSNLARKQYTIGETVNLMSVDSQKLMDATNYMQLVWSSVIQITLSIFFLWRELGPSILAGVGVMVLLIPVNGVLATKIRNIQVQNMKNKDKRLKIMNEILSGIKILKYFAWEPSFQEQVQGIRKKELKNLLRFGQLQSLLIFILQITPILVSVVTFSVYVLVDSANVLNAEKAFTSITLFNILRFPLSMLPMVTSSILQASVSVDRLERYLGGDDLDTSAIRRVSNFDKAVKFSEASFTWDPDLEATIQDVNLDIKPGQLVAVVGTVGSGKSSLVSAMLGEMENVHGHITIQGSTAYVPQQSWIQNGTIKDNILFGSEYNEKKYQQVLKACALLPDLEILPGGDMAEIGEKGINLSGGQKQRVSLARAAYQDADIYILDDPLSAVDAHVGKHIFNKVVGPNGLLAGKTRIFVTHGIHFLPQVDEIVVLGKGTILEKGSYRDLLDKKGVFARNWKTFMKHSGPEGEATVNNDSEAEDDDDGLIPTMEEIPEDAASLAMRRENSLRRTLSRSSRSSSRRGKSLKNSLKIKNVNVLKEKEKEVEGQKLIKKEFVETGKVKFSIYLKYLQAVGWWSILFIILFYGLNNVAFIGSNLWLSAWTSDSDNLNGTNNSSSHRDMRIGVFGALGLAQGICLLISTLWSIYACRNASKALHGQLLTNILRAPMRFFDTTPTGRIVNRFSGDISTVDDLLPQTLRSWMMCFFGIAGTLVMICMATPVFAIIIIPLSILYISVQVFYVATSRQLRRLDSVTKSPIYSHFSETVTGLPIIRAFEHQQRFLAWNEKQIDINQKCVFSWITSNRWLAIRLELVGNLVVFCSALLLVIYRKTLTGDVVGFVLSNALNITQTLNWLVRMTSEAETNIVAVERISEYINVENEAPWVTDKRPPADWPRHGEIQFNNYQVRYRPELDLVLKGITCNIKSGEKVGVVGRTGAGKSSLTNCLFRILESAGGQIIIDGIDVASIGLHDLRERLTIIPQDPILFSGSLRMNLDPFNKYSDEEVWRALELAHLRSFVSGLQLGLLSEVTEGGDNLSIGQRQLLCLGRAVLRKSKILVLDEATAAVDLETDSLIQTTIRKEFSQCTVITIAHRLHTIMDSDKIMVLDNGKIVEYGSPEELLSNRGSFYLMAKEAGIENVNHTEL
Protein B1 has a Km of 31 µM.
